Numbering of substitutions follows the chain as printed. Where “and” joins values, the source holds several entries; their conditions need not be identical. Equal entries are not always repeated. Each block holds one binder with its values, some of them ahead of it.
What was measured:
Experiment in all cases: cell-based or functional assay
[1] = biological target: T1, human PAR-2 (human, UniProt P55085 26-397)
T1 sequence: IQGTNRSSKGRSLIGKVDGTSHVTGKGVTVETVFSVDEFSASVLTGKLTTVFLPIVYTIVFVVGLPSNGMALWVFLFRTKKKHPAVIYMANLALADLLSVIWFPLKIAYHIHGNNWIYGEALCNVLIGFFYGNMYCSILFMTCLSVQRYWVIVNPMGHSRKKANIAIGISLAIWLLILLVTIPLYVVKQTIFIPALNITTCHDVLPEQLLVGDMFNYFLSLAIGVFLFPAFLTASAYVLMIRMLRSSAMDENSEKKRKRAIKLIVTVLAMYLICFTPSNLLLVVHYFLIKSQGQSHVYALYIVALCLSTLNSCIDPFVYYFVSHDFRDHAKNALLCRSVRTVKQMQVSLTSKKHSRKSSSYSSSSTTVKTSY

[2] = biological target: T1, human PAR-2; remark: listed apart in the source
[3] = biological target: T1, human PAR-2; remark: listed apart in the source

PAR-2 calcium flux cell assay IC50 [1]: 22.8 nM
PAR-2 β-arrestin cell assay IC50, 1 µM SLIGKV [1]: 6.1 nM
B3: 309-11e (antibody, human IgG4 S228P, kappa, V domains shown)
VH: QVQLQESGPGLVKPSETLSLTCTVSGFSLNSYGVIWIRQPPGKGLEWIGVIWGNGNTYYNPSLKSRVTISVDTSKNQFSLKLSSVTAADTAVYYCARWRGYKDYPFDYWGQGTLVTVSS
VL: EIVLTQSPATLSLSPGERATLSCKASQNIYKYLDWYQQKPGQAPRLLIYNTNSLHTGIPARFSGSGSGRDFTLTISSLEPEDFAVYYCLQHNSGWTFGGGTKVEIKR

PAR-2 calcium flux cell assay IC50 [1]: 8.3 nM
PAR-2 β-arrestin cell assay IC50, 1 µM SLIGKV [1]: 2.3 nM
B5: 309-12e (antibody, human IgG4 S228P, kappa, V domains shown)
VH: B3 VH with E6Q, S7W, P9A, V12L, T23A, S25Y
VL: B3 VL

Second part, the binder before the results:

B1: 309-6i (antibody, human IgG4 S228P, kappa, V domains shown)
VH: EVQLVESGGGLVQPGGSLRLSCAASGFSLNSYGVIWVRQAPGKGLEWVSVIWGNGNTYYNDSVKGRFTISRDNSKNTLYLQMNSLRAEDTAVYYCARWRGYKDYPFDYWGQGTLVTVSS
VL: DIQMTQSPSSLSASVGDRVTITCKASQNIYKYLDWYQQKPGKAPKRLIYNTNSLHTGVPSRFSGSGSGTEFTLTISSLQPEDFATYYCLQHNSGWTFGGGTKVEIKR
PAR-2 β-arrestin cell assay IC50, 1 µM SLIGKV [1]: 40.6 nM

B2: P24E1103 (antibody, human IgG4 S228P, kappa, V domains shown)
VH: QVQLVQSGAEVKKPGSSVKVSCKASGFSLSSYAISWVRQAPGQGLEWMGVIWGNQNVYYAQKFQGRVTITADESTSTAYMELSSLRSEDTAVYYCARWKGYKDYPFDYWGQGTLVTVSS
VL: B3 VL with K24R, I29V, Y32W, T51A, S53N, L54R, H55A, L89Q, N92H
PAR-2 β-arrestin cell based assay IC50, 2 µM SLIGKV [2]: 1.54 nM
Calcium flux IC50 [3]: 12.7 nM
IL-6 release in A549 cells IC50 [3]: 7.18 nM
IL-8 release in A549 cells IC50 [3]: 5.17 nM

B4: 309-6e (antibody, human IgG4 S228P, kappa, V domains shown)
VH: B1 VH
VL: B3 VL
PAR-2 calcium flux cell assay IC50 [1]: 12.7 nM
PAR-2 β-arrestin cell assay IC50, 1 µM SLIGKV [1]: 5.6 nM

B6: 309-4e (antibody, human IgG4 S228P, kappa, V domains shown)
VH: B2 VH with S30N, A33G, I34V, S35I, Q55G, V57T, A60N, K99R
VL: B3 VL
PAR-2 calcium flux cell assay IC50 [1]: 7.6 nM
PAR-2 β-arrestin cell assay IC50, 1 µM SLIGKV [1]: 5.8 nM
PAR-2 β-arrestin cell based assay IC50, 2 µM SLIGKV [2]: 2.1 nM and 5.9 nM
